Data on 3 variants can be found in IntAct's records for PubMed 28062662.

B1: Glutaryl-CoA dehydrogenase, mitochondrial (Homo sapiens), Q92947 (parent)
chain: MALRGVSVRLLSRGPGLHVLRTWVSSAAQTEKGGRTQSQLAKSSRPEFDWQDPLVLEEQLTTDEILIRDTFRTYCQERLMPRILLANRNEVFHREIISEMGELGVLGPTIKGYGCAGVSSVAYGLLARELERVDSGYRSAMSVQSSLVMHPIYAYGSEEQRQKYLPQLAKGELLGCFGLTEPNSGSDPSSMETRAHYNSSNKSYTLNGTKTWITNSPMADLFVVWARCEDGCIRGFLLEKGMRGLSAPRIQGKFSLRASATGMIIMDGVEVPEENVLPGASSLGGPFGCLNNARYGIAWGVLGASEFCLHTARQYALDRMQFGVPLARNQLIQKKLADMLTEITLGLHACLQLGRLKDQDKAAPEMVSLLKRNNCGKALDIARQARDMLGGNGISDEYHVIRHAMNLEAVNTYEGTHDIHALILGRAITGIQAFTASK
partner: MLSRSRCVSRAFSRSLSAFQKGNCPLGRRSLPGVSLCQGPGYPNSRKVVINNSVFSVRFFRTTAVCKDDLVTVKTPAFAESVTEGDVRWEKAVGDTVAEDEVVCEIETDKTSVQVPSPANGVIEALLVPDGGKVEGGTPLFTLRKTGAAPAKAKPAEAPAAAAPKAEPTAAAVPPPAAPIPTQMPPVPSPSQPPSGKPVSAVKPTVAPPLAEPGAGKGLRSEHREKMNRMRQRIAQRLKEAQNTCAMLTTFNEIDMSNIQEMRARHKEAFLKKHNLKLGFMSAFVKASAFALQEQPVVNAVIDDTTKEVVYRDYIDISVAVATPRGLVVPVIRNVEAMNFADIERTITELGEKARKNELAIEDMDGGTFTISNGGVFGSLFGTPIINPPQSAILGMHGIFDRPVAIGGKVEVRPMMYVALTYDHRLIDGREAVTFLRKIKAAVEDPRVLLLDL

Variants of B1 are the subject of the assay. The following applies: with odo2_human DLST.
For R355H, the “effect of a mutation on the interaction” value is “decreasing interaction strength”.

For P278S, the “effect of a mutation on the interaction” value is “increasing interaction strength”.

In the case of M263V, the “effect of a mutation on the interaction” value is given as “increasing interaction strength”.
